In publication PMC5021334:

Assays:
[1] = target: GST-DENV3 NS5 residues 865-900 (Dengue virus serotype 3); assay: ELISA; solid-phase microtitre plate assay: GST-NLS from cell lysate captured on a glutathione coated plate and washed (PBS, 0.05% Tween-20); Impα in 2-fold serial dilutions in PBS from 12.5 μM, 1 h at RT; bound Impα detected with anti-6x His tag HRP antibody and TMB at 450 nm; one-site specific binding …
[2] = target: GST-DENV1 NS5 residues 865-899 (Dengue virus serotype 1); assay: as above
[3] = target: GST-DENV2 NS5 residues 865-900 (Dengue virus serotype 2); assay: as above
[4] = target: GST-DENV4 NS5 residues 865-901 (Dengue virus serotype 4); assay: as above
[5] = target: GST-DENV3 NS5 residues 865-900 (Dengue virus serotype 3); assay: pull-down
[6] = target: GST-DENV2 NS5 residues 865-900 (Dengue virus serotype 2); assay: pull-down

mouse importin-α lacking the auto-inhibitory importin-β binding domain (Impα) (domain or fragment)
Kd [1]: 660 nM | Kd [2]: 54000 nM | Kd [3]: 4530 nM | Kd [4]: 18500 nM | Kd [5]: 370 nM | Kd [6]: 270 nM
